Assay results from PMC2908525 (Molecular cell, 2010).

Molecular target: the molecule itself
Test: single-molecule TIRF microscopy of DNA looping

B1: enhanced green fluorescent protein-MuB fusion (EGFP-MuB) (natural protein, bacteriophage Mu, UniProt P03763 1-312, looked up)
chain: MNISDIRAGLRTLVENEETTFKQIALESGLSTGTISSFINDKYNGDNERVSQMLQRWLEKYHAVAELPEPPRFVETQTVKQIWTSMRFASLTESIAVVCGNPGVGKTEAAREYRRTNNNVWMITITPSCASVLECLTELAFELGMNDAPRRKGPLSRALRRRLEGTQGLVIIDEADHLGAEVLEELRLLQESTRIGLVLMGNHRVYSNMTGGNRTVEFARLFSRIAKRTAINKTKKADVKAIADAWQINGEKELELLQQIAQKPGALRILNHSLRLAAMTAHGKGERVNEDYLRQAFRELDLDVDISTLLRN
B1: binds.
